Measured values reported in US20140186294A1, “PHAGOCYTIC ACTIVITY AS A MARKER OF SYNUCLEINOPATHIC DISEASE” (ELAN PHARMACEUTICALS, INC., priority 2010, published 2014).
Entries after “also recorded” stand apart in the source; their conditions may differ.

Experiments:
[1] = tested on: SNARE complex; test: SNARE complex components in lysates of IL-4 treated microglia; type: cell-based, mouse; settings: IL-4 24 hr; wild type and synuclein OE cells
Procedure: To determine if IL-4 worked in part by altering SNARE or vesicle movement microglia from synuclein genomic mice were treated with IL-4 for 24 hr and lysates were probed for components of the SNARE complex. […] After addition of beads we saw induction of SNARE complexes and these were enhanced following IL-4 treatment.

[2] = tested on: microglial cells; test: Phagocytic activity screening assay, microglial cells; type: cell-based
Procedure: (§1) The components of a screening assay include cells with phagocytic activity, a test agent being screened and an entity that can be phagocytosed. Such an entity can be inert particles, such as latex beads, preferably of size 4-10 microns. The entity can also be apoptotic cells, such as Jurkat cells). Cells and inert entities are phagocytosed by different mechanisms, the former being receptor dependent. Usually the cells are contacted with the test agent first and incubated for a period (e.g., 1-48 hr) before adding the entity to be phagocytosis. Phagocytosis can be followed by light microscopy or flow cytometry among other methods detecting uptake of the entity being phagocytosed into the phagocytic cell. Methods for detection of phagocytosis can include any fluorescent based platform (e.g., flow cytometry, microscopy, array scan, or a Tr-fret, fluorescent plate reader) enzymatic, or colorimetric readout.
(§2) The screening assay can be performed on different types of phagocytic cells in parallel or sequentially. Some agents stimulate phagocytic activity in all or multiple cell types. Other agents may stimulate phagocytic activity in some cells type but not all.

[3] = tested on: synuclein overexpressing microglia; test: Bead phagocytosis (phagocytic index) of IL-4 treated microglia from synuclein genomic lines 3, 26, 422; type: cell-based, mouse; settings: IL-4 24 hours, then beads 90 minutes
Procedure: FIG. 13: Wild type or synuclein overexpressing microglia isolated from line 3, 26, or 422 littermate pups cells were treated for 24 hours with IL-4 and the fed beads for 90 minutes and phagocytic index determined.
To investigate the role of endogenous synuclein on microglia function, we utilized a transgenic mouse model in which wild type or the E46K mutated form of human synuclein was overexpressed from a human bacterial artificial chromosome (bac). The bac construct contained the synuclein promoter and upstream sequences (45 kbp), as well as downstream 3′ sequences ([…]). Three animal lines of interest were identified; line 422 expresses wild type synuclein and two additional lines, line 26 and line 3, express the mutant E46K form. Altered microglia function associated with over expression of human synuclein was assessed in cells isolated from line 26 P1-P3 pups due in part to the high synuclein expression observed in this line. […] Significant overexpression of human synuclein in the murine microglia allowed us to assess the consequence of elevated synuclein levels on microglia function. […] Although the requirement for receptor engagement differs, both targets require activation of intracellular signaling, actin rearrangement, and mobilization of membrane to the phagocytic cup. […]

[4] = tested on: synuclein mRNA; test: Synuclein transcript levels in IL-4 treated human microglia (microarray, qPCR); type: cell-based; settings: IL-4 24 hours; microglia from three human donors
Procedure: (§3) FIG. 12: Microarray analysis of microglia isolated from three human donors were stimulated with IL-4 for 24 hours and microarray experiment performed and results were confirmed by qPCR. qPCR was also performed on microglia isolated from IL-4 treated line 26/synuclein null pups.
(§4) Human microglia were treated with IL-4 and synuclein transcript levels were measured by microarray and qPCR. Following IL-4 treatment synuclein levels were decreased by 50% in the three donors tested (FIG. 12). […] Microglia from synuclein genomic mice were treated with IL-4 for 24 hours, and while synuclein mRNA levels were decreased, protein levels were unaffected. Synuclein is turned over slowly, therefore 24 hours maybe too soon to see affects. To assess this microglia were stimulated with IL-4 for 48 hr at which time a 50% reduction in synuclein protein levels was observed. […] This may point to a direct effect of IL-4 signaling on the synuclein promoter.

[5] = tested on: H4 neuronal cells; test: Phagocytic activity screening assay, H4 neuronal cells; type: cell-based, human; settings: H4 neuronal cells (lack an IL-4 receptor)
Text: The screening and diagnostic assays employ cells with phagocytic activity, sometimes referred to as phagocytic cells. The cells can be human, or other mammalian, particular rodent or mouse. The cells can be obtained from a subject with synucleinopathic disease (usually a human) or a transgenic animal model of disease (e.g., a mouse). The cells can also be a cell line transformed to express an alpha synuclein gene. The cells include microglial cells or peripheral macrophages or polymorphonuclear cells or other phagocytic cells. Microglia can be obtained by biopsy or differentiating or trans-differentiation of embryonic stems cells, bone marrow, induced pluripotent or other stem or pluripotent cell sources from a subject or transgenic animal model. Such phagocytic cells have higher intracellular levels of alpha synuclein that control cells from an undiseased individual. […]
The components of a screening assay include cells with phagocytic activity, a test agent being screened and an entity that can be phagocytosed. […] Methods for detection of phagocytosis can include any fluorescent based platform (e.g., flow cytometry, microscopy, array scan, or a Tr-fret, fluorescent plate reader) enzymatic, or colorimetric readout. […]

[6] = tested on: peripheral macrophages; test: Phagocytic activity screening assay, peripheral macrophages; type: cell-based
Procedure: as §1, §2

[7] = tested on: synuclein protein; test: Synuclein protein levels in IL-4 treated microglia from synuclein genomic mice; type: cell-based, mouse
Procedure: as §4

[8] = tested on: synuclein mRNA; test: Synuclein mRNA (qPCR) in IL-4 treated line 26/synuclein null microglia; type: cell-based, mouse
Procedure: as §3, §4

B1: IL-4: interleukin IL-4 (Swiss Prot P05112), cytokine used to treat microglia (protein, UniProt P05112 25-153, looked up)
Interleukin-4: HKCDITLQEIIKTLNSLTEQKTLCTELTVTDIFAASKNTTEKETFCRAATVLRQFYSHHEKDTRCLGATAQQFHRHKQLIRFLKRLDRNLWGLAGLNSCPVKEANQSTLENFLERLKTIMREKYSKCSS
With B1 the “SNARE complex components in lysates” value [1] was “increased monomer SNAP23 Syntaxin4, and SNAP23 snare complex”, the stimulating phagocytic activity [2] was “effective” and the “phagocytosis (phagocytic index)” value [3] was “rescue the phagocytic defect”. The “phagocytosis (phagocytic index)” value ([3]; listed as 11-4) was “restored phagocytosis”, the “reduction in synuclein mRNA levels” value [4] was 50% and the stimulating phagocytic activity [5] was “not in H4 neuronal cells”. For the same molecule, the stimulating phagocytic activity [6] was “effective”, the synuclein protein levels ([7]; IL-4 for 24 hours) was “unaffected; also recorded: did not decrease synuclein protein” and the “reduction in synuclein protein levels” value ([7]; IL-4 for 48 hr) was 50%. The “reduction in synuclein mRNA levels” value ([8]; IL-4 treated line 26/synuclein null pup microglia, qPCR) was 50% and the “synuclein mRNA levels” value ([8]; line 26/synuclein null genomic microglia, IL-4) was “reduced synuclein mRNA levels”.
